Test results as given in the nanobody polyreactivity screen of Harvey et al. (2022).

Test: yeast display, Sf9 membrane polyspecificity reagent, FACS + sequencing; frameworks hold sequencing errors
Summary of the method: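 A synthetic nanobody library was expressed on Saccharomyces cerevisiae BJ5465 by galactose induction for 36–48 hours. The library was stained for 1 hour at 4 °C with 10% biotinylated, detergent-solubilized Sf9 membrane reagent and enriched with streptavidin microbeads before FACS. Low and high (top ~1%) gates were set on anti-HA fluorescence for expression and streptavidin fluorescence for reagent binding, and each polyreactivity label reflects the gate of origin.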

Sequence	polyreactivity (PSR sort gate)
QDQLVESGGGLVQAGGSLRLSCAASGGTFLTYAMGWYRQAPGKERELVAAISSGGSTYYADSVKGRFTISRDNAKNTVYLQMNSLKPEDTAVYYCNADPYSRFWGPDYGYWGQGTQVTVSS	low polyreactivity
QDQLVESGGGLVQAGGSLRLSCAASGIFPYYAMGGYRQAPGTEREFVAAITRSGGSTYYADSVKGRFTISRDNAKKTVYLQMNSLKPEDTAVYYCNKRYGYTGFSPRYDYWGQGTQVTVSS	low polyreactivity
QDQLVESGGGLVQAGGSLRLSCAASGITFFVYDMGWYRQAPGTERELVAAITWSGDSTYYADSVKGRFTISRDNAKNTVYLQMNSLKPEDTAVYYCAAQFDVYYSRQPYDYNRSGYWGQGTQVTVSS	low polyreactivity
QDQLVESGGGLVQAGGSLRLSCAASGITVDGYAMGWYRQAPGKDRELVAAITTSGGRTYYADSVKGRFTISRDNAKNTVYLQMNSLKPEHTADYYCNAVRGGRYGLDYWGQGTQVTVSS	high polyreactivity
QDQLVESGGGLVQAGGSLRLSCAASGLILHKYAMGWYRQAPGKERELVASINSGANTNYADSVKGRFTISRDNAKNTLYLHLNSLKPEDTAVYYCAADWQQLSYVWRSQRRYNYWGQGTQVTVSS	low polyreactivity
QDQLVESGGGLVQAGGSLRLSCAASGLTFPEYAMGWYRQAPGKERELVAAITWSGATTYYADSVKGRFTISRDNAKNTVYLQMNSLKPEDTAVYYCAAEYTVYNTALPGYYFTYYYWGQGTQVTVSS	high polyreactivity
QDQLVESGGGLVQAGGSLRLSCAASGLTFYTYAMGWYRPAPGKERELVAAIRWRGGRTYYADSVKGRFTISRDNAKNTVYLLMNSLKPEDTAVYYCAADYSTLYKYDYWGQGTQVTVSS	low polyreactivity
QDQLVESGGGLVQAGGSLRLSCAASGNTFRYYALGGYRQAPGKERELVATITSGGRTYYADSVKGRFTISRDNAKNTVYLQMNSLKPEDTAVHYGAAVGLDYFVGEYDYWGQGTQVTVSS	low polyreactivity
QDQLVESGGGLVQAGGSLRLSCAASGNTFVSNAMGWYRQAPGKERELVAAIDSGGSTNYADSVKGRFTISRDNAKYTVYLQMNSLKPEDTAVYYCNRTSVYYYYWGQGTQVTVSS	low polyreactivity
QDQLVESGGGLVQAGGSLRLSCAASGPIFRSYAMGWYRQAPGKEMELVAAISRSGGSTYYADSVKGRFSISRDNAKNSVYLHMNSLKPEDSAVYYCAADYILLGGRRKFDSWGQGTQVTVSS	low polyreactivity
QDQLVESGGGLVQAGGSLRLSCAASGRIFAGYAMGWYRQAPGKERELVATISSGGSTYYADSVKGRFTISRDNAKNTVYLQMHSLKPEDTAVYYCAAEYGTRQYSSYYKLFNYWGQGTQVTVSS	low polyreactivity
QDQLVESGGGLVQAGGSLRLSCAASGRIFGSYAMGWYRQAPGKERELVAAISIGGRTYYADSVKGRFTISRDNAKNTVYLQMNSLKPEDTAVYYCNAPAYYWRHYVYDSGYDYWGQGTQVTVSS	low polyreactivity
QDQLVESGGGLVQAGGSLRLSCAASGRIFGYYTMGWSRPAPGKERELVAGITRRGGRTYYADSVKGRFTISRDNAKNTVYLQMNSLKPEDTGVYYCAVRSGVNFYYWGQGTQVTVSS	high polyreactivity
QDQLVESGGGLVQAGGSLRLSCAASGRIFGYYVMGWYRQAPGKERELVAAISGSGGSTYYADSVKGRFTISRDNAKNTVYLQMNSLKPEDTAVYYCNKRATRSRRRGYWGQGTQVTVSS	low polyreactivity
QDQLVESGGGLVQAGGSLRLSCAASGRIFHGNAMGWYRQARGKEWELVAAISRRGGSTYSADSVKGRFTISRDNAKNTVYLQMNSLKPEDTAVYYCAAVWPYGSRGAPMDYWGQGTQVTVSS	high polyreactivity
QDQLVESGGGLVQAGGSLRLSCAASGRIFPYYAMGRYRQAPGKERELVASISGSGGRTYYADSVKGRFTISRDNAKNTVSLQMNSLKPEDTAVYYCAAYWYKVPGKYGYWGQGTQVTVSS	high polyreactivity
QDQLVESGGGLVQAGGSLRLSCAASGRIFQGYAMGWYRQAPGKERELVAAITLSGGSTYYADSVKGRFTISRDNAKNTVYLQMNSLKPEDTAVYYCNAYYPDEPSLYDYWGQGTQVTVSS	low polyreactivity
QDQLVESGGGLVQAGGSLRLSCAASGRIFRGNAMGWYRQAPGKEREMVAAISRRSGSTYYADSVKGRFTISRDNAKNTVYLQMNSLKPEDTAVYYCAATSSLGDFRYDYWGQVTQVTVSS	high polyreactivity
QDQLVESGGGLVQAGGSLRLSCAASGRIFRGYAMGWYRQAHGKERELVAVISYSGTRTYYADSVKGRFTISRDNAKNTVYIQMNSLKPEDTAVYYCNARANGFKDGYWGEGTQVTVSS	high polyreactivity
QDQLVESGGGLVQAGGSLRLSCAASGRIFRSYAMGWYRQAPGKERELVAAINTGGITYYADSVKGRFTISRDNAKNTVYLQMNSLKPEDTAVYYCNTYILSRMNYWGQCTQVTVSS	high polyreactivity
QDQLVESGGGLVQAGGSLRLSCAASGRIFSRNAMGWYRQAPGKERELVAAITWRGGSTYYADSVKGRFTISRDNAKNTVYLQMTSLKPEDTAVYYCNRDYRQYGYAYSGRYYWGLGTQVTVSS	high polyreactivity
QDQLVESGGGLVQAGGSLRLSCAASGRIFVPYSKGWYRQATGKERELVAAISLRGGTTYYSDSVKGRFTISRDNAKNTVYLQMNSLKPEDTAVYYCAARGYVSVWRPYHWFVAGDYWGQGTQVTVSS	high polyreactivity

Sequence	polyreactivity (PSR sort gate)
QDQLVESGGGLVQAGGSLRLSCAASGRIFYPNAMGWYRQAPGKERELVASISRGGPTSYADSVKGRFTISRDNAKNTVYLQMNSLKPEDTAVYYCAADVAWYRYRSYYWGQGTQVTVSS	high polyreactivity
QDQLVESGGGLVQAGGSLRLSCAASGRLFDLNAMGWNRQAPGTERELVAVISWSGGITYYADSVKGRFTSSRDNAKNTVYLLMNSLKPEDTAVYYCNADTDFDPYYEFDYWGQGTQVTVSS	low polyreactivity
QDQLVESGGGLVQAGGSLRLSCAASGRTFAFKSMGWYRQAPGKERELVAAIRWSGGTTYYADSVKGRFTISRDNANNTVYLQMNSLKPEDTAVYYCATGKWVYFRYNYWGLGTQVTVSS	high polyreactivity
QDQLVESGGGLVQAGGSLRLSCAASGRTFRKYAMGWYRPAPGKEREFVAAITSSGGSTYYADSVKGRYTISRDNAKNTVYLQMNSLKPEDTAVYYCAAARTSTGTYRYEYWGQGTQVTVSS	high polyreactivity
QDQLVESGGGLVQAGGSLRLSCAASGRTFRYYAMGWYRQAPRKERELVAAISSGGSTNYADSVKARFTISRDNAKNTVYLQMNRLKPEDTGVYYCAVQAWYMTYSYPYSKGYYWGQGTQLTVSS	high polyreactivity
QDQLVESGGGLVQAGGSLRLSCAASGRTFSINAMGWYRQAPGKERELVASISSRGTRTNYADSVKGRFTISRDNAKNTVYLQMNSLKPEDTGVYYCAADRYYPYYSAWREYEYWGQGTQVTVSS	high polyreactivity
QDQLVESGGGLVQAGGSLRLSCAASGRTFYDNAMGWYRQAPGKERELVAAITWRGGGTYYADSVKGRFTISRDNAKNTVYLQMNSLKPEDTAVYYCAADSSGTGFYAYTDGEEKYSWGQGTQVTVSS	high polyreactivity
QDQLVESGGGLVQAGGSLRLSCAASGRTLGKNAMGWYRQAPGTERELVAAISSSGGSTYYADSVKGRFTISRDNAKNTVYLQMNSLKPEDTAVYYCAAKYFRKYSQIGPDMYYWGQGTQVTVSS	high polyreactivity
QDQLVESGGGLVQAGGSLRLSCAASGRTLYLYAMGWYRQAPGKERELVAGISWSGTSTYYADSVKGRFTISRYNAKNTVYLQMNSLKPEDTAVYYCAADSYPAYLGFVGFDYWGQGTQVTVSS	low polyreactivity
QDQLVESGGGLVQAGGSLRLSCAASGSIFAGYVMGWYRQAPGKERELVASISSGTGTFYADSVKGRFTISRDNAKNTVYLQMNSLKPEDTAVYYCAAESYRTVQFIRSRWRYTYDYWGQGTQVTVSS	low polyreactivity
QDQLVESGGGLVQAGGSLRLSCAASGSIFGAYARGWYRQAPGKERELVAAISGSGTSTYYADSVKGRFTISRDNAKNTVYLQMNSLKPEDTAVYYCAADGTYFYIYLGDRFDYWGQGTQVTVSS	low polyreactivity
QDQLVESGGGLVQAGGSLRLSCAASGSIFNPYAMGWYRQAPGKERELVAAITSGGYTYADSVKGRFTISRDNAKNTVYLQMNSLKPEDTAVYYCAADRSYVYAGADMYYWGQGTQVTVSS	low polyreactivity
QDQLVESGGGLVQAGGSLRLSCAASGSIFQYYAMGWYRQAPGKERELVAAISYSGDGTFYADSVKGRFTISRDNAKNSVYLQMNSLKPVDTAVYYCAASSTGYGGSTYYYWGQGTQVTVSS	low polyreactivity
QDQLVESGGGLVQAGGSLRLSCAASGSIFRYVMGWYRQAPGNERELVAAISIRGGSTYYADSVKGRFTISRDNAKNTVFFQMHSLKPEDTAVYYCAADRYRLGVKYDYWGQGTQVTVSS	high polyreactivity
QDQLVESGGGLVQAGGSLRLSCAASGSIFVQYAMGWYRQAPGKERELVATISSSGGSTYYADSVKGRFTISRDNAKNTVYLQMNCLKPEDTAVYYCAADWTLDPSYGYYADDYWGQGTQVTVSS	low polyreactivity
QDQLVESGGGLVQAGGSLRLSCAASGSIFWLNAMGWYRQAPGKERELVAAITTVDSTYYADSVKGRFTISRDNAKNTVYLQMNSLKPEDTAVYYCAASGRQSRYDYWGQGTQVTVSS	low polyreactivity
QDQLVESGGGLVQAGGSLRLSCAASGSIFWLYTMGWYRQAPGKERELVAAITGSGSSTYYADSVKGRFTISRDNAKNTVYLQMNSLKPEDTAVYYCAAYWSSARRRYDYWGQGTQVTVSS	high polyreactivity
QDQLVESGGGLVQAGGSLRLSCAASGSIFYPYAMGWYRQATGKEREFVAGITTRGGSTYYADSVKGRFTISRDNAKNTVYLQMNSLKPVDTAVYYCNAGYYLTLDYWGQGTQVTVSS	high polyreactivity
QDQLVESGGGLVQAGGSLRLSCAASGSIFYRYAMGWYRQARGKVREFVAGITYSSGTTYYADSVKGRFTISRDNAKNTVYLQMNSLKPEETAVYYCAAELRSSYYRRAMDYCGQGTQVTVSS	high polyreactivity
QDQLVESGGGLVQAGGSLRLSCAASGSTFGYYAMGWYRQAPGKERELVAAITWNGGSTYADSVKGRFTISRDNAKNTVYLQMNSLKPEDTAVYYCAALVHRRVQYDYWGQGTQVTVSS	high polyreactivity
QDQLVESGGGLVQAGGSLRLSCAASGSTFHLYAMGWYRQAPGKERELVAAITRRGSDTYYADSVKGRFTISRDNAKNTVYLQMNSLKPEDTAVYYCAARDRHPVWGQGTQVTVSS	low polyreactivity
